The values that follow come from patent publication US20250152729A1 (CANCER RESEARCH TECHNOLOGY, published 2025).

Positions count from the first letter of the chain named.

Assay [1] addresses T1, human SEMA4A expressed on cells (UniProt ID Q9H3S1, isoform 1) (human, UniProt Q9H3S1 33-761).
T1 construct: Cell-surface SEMA4A: endogenous on MM.1S, NCI-H929 and Karpas-25 cells, or expi293 cells transfected with Origene SC323738; also called human Semaphorin4A; SEMA4A endogenously expressed on MM.1S cells
T1 sequence: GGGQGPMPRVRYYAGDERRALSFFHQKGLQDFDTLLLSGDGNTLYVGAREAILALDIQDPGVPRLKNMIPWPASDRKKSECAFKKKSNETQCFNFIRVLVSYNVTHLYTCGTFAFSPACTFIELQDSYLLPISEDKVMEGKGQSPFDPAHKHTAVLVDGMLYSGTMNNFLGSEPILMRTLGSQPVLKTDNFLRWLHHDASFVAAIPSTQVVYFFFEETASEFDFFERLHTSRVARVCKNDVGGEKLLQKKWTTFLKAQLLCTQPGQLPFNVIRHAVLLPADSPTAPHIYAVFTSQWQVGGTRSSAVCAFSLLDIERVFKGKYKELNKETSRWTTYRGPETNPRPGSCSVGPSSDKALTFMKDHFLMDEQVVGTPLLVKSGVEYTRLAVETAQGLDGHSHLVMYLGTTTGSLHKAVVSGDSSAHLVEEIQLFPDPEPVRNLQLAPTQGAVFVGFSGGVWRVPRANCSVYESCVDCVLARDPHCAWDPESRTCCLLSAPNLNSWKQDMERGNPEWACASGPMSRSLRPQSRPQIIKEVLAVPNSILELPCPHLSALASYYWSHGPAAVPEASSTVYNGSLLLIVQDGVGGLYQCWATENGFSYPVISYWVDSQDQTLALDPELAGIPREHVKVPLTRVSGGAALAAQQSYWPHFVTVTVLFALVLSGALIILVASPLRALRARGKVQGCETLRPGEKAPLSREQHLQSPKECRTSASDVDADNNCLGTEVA
Nature of the assay: direct binding of un-purified human IgG1 to MM.1S cells endogenously expressing human SEMA4A (Mirrorball, anti-human Alexa Fluor 647); single concentration, 1.56 % final. As to the method:
The MM.1S binding assay assessed the ability of the un-purified human IgG1s to bind directly to human SEMA4A that was endogenously expressed by MM.1S cells. Direct binding of a single concentration of un-purified human IgG1s to MM.1S cells was measured via an anti-human secondary labelled with Alexa Fluor 647 (Invitrogen, A21445). 10 μl undiluted un-purified IgG, contained in Expi293 expression medium (Gibco, UK, A1435101), were added to the assay plate (Greiner Bio-one, UK, 781906), followed by 10 μl 8 nM anti-human Alexa Fluor 647 and 20 μl MM.1S cell suspension containing 1,500 cells. The assay plate was incubated for 4 hours at room temperature in the dark prior to reading on a Mirrorball fluorescence cytometer (SPT Labtech, UK) using a 640 nm laser for excitation and measuring emission in the FL-4 channel (650-690 nm). Data was analysed as Count x median mean intensity (x FLU). All dilutions were performed in Hanks' balanced salt solution (Sigma, UK; cat: H8264) containing 0.1% (w/v) BSA (Sigma, UK; cat: A9576). Data were analysed and graphed using GraphPad Prism software (GraphPad Software, Inc, La Jolla, CA).

The target in assay [2] is T2, recombinant cynomolgus SEMA4A AviHis10, biotinylated (cynomolgus, UniProt Q9H3S1 32-677 (human entry), biotin on the Avi tag (BirA)).
T2 construct: The text says amino acids 32-679 of G7NV79 with C-terminal Avi tag and His10 tag; also called Cyno SEMA4A AviHis10; cynoSEMA4A
T2 chain: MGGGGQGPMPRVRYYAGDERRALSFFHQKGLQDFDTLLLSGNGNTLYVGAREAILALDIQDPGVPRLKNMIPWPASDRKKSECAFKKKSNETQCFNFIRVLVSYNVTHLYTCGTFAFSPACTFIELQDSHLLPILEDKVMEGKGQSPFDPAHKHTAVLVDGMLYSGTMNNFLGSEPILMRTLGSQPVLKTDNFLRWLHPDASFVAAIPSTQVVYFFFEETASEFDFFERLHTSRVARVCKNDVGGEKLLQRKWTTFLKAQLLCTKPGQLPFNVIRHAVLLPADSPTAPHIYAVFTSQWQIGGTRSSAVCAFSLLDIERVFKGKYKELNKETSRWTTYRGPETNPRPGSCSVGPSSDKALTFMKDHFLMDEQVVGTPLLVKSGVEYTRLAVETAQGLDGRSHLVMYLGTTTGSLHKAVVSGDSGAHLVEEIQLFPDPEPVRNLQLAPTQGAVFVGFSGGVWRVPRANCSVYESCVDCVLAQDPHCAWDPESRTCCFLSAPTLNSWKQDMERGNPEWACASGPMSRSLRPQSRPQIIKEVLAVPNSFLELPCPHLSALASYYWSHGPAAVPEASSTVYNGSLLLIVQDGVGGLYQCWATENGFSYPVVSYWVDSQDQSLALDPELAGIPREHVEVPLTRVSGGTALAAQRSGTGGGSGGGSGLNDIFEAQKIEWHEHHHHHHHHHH
Nature of the assay: BLI (OctetRED), biotinylated SEMA4A on streptavidin tip, Fab as analyte, 1:1 model. As to the method: (§1) An Octet Kinetics buffer (PBS containing 0.01% (v/v) BSA and 0.002% (v/v) Tween20) is typically used as the diluent buffer for the analyte samples and as the flow buffer during the dissociation phase. The experimental data is recorded as shift in interference pattern (nm) over time, which is directly proportional to the optical thickness at the biosensor tip, which in turn is an approximate measure of the mass of analyte bound. The proprietary Octet Data Analysis software package can then be used to process data and fit binding models to the data sets. Returned association (ka, M-1 s-1) and dissociation (kd, s-1) rate constants allow calculation of dissociation (KD, M) affinity constants.
(§2) The affinity of binding between the analytes (humanised and phage display derived IgGs as human Alya IgG1s and Fabs) and human SEMA4A and cynomolgus SEMA4A, was estimated using assays in which the biotinylated SEMA4A antigen was captured on a streptavidin sensor tip. A fresh sensor tip was used for each measurement and no regeneration was used. A series of dilutions of the lead Fabs and human Alya IgG1s (3.25-240 nM) were individually placed in contact with the ligand surface for a sufficient amount of time to observe sensorgrams that could be fitted to an appropriate binding model with confidence (typically 5 minutes), followed by an appropriate length of dissociation time (typically 10 minutes). Blank reference (0 nM analyte) data were subtracted from each dataset to reduce the impact of any buffer artefacts or non-specific binding effects. A 1:1 binding model was then fitted simultaneously to the data from each analyte titration using the Octet Evaluation software (Table 8).

In assay [3] the target is T3, recombinant human SEMA4A AviHis10, biotinylated (human, UniProt Q9H3S1 33-683, biotin on the Avi tag (BirA)).
T3 construct: The text says amino acids 33-683 of Q9H3S1 with C-terminal Avi tag and His10 tag; also called avi-SEMA4A-His10
T3 sequence: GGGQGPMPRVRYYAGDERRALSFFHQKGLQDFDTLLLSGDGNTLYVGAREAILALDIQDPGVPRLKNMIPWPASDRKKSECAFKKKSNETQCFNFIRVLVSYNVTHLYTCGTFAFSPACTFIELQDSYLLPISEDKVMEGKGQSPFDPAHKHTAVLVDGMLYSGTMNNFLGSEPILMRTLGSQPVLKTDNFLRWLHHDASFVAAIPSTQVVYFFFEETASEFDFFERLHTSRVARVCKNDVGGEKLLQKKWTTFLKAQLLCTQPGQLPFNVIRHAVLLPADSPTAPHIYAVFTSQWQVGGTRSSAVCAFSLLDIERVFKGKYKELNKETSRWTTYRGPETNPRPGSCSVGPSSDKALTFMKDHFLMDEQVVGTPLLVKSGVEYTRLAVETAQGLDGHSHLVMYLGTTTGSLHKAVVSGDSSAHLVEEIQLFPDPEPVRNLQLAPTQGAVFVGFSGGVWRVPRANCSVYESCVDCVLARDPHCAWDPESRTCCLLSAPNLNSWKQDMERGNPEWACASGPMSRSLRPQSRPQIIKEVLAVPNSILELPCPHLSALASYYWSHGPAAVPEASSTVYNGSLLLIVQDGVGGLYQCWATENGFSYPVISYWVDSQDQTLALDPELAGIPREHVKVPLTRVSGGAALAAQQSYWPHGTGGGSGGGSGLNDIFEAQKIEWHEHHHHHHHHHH
The assay is described as above. The method, then:
as §1, §2

B1: C0120904 (antibody, V domains shown)
VH: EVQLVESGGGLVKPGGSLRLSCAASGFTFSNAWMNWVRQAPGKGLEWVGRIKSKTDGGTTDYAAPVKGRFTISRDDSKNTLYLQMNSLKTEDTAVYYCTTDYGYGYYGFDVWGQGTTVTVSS
VL: SYELTQPPSVSVSPGQTATISCSGNKLGDGYVSWYQQKPGQSPVLVIYQDSKRPSGIPQRYSGSNSGNTATLTISGTQAIDEADYYCQAWDSSTVVFGGGTKVTVL
notes: un-purified fully human phage display IgG, primary screen; also called C0120904 un-purified human IgG1
Regarding B1, in assay [1], the binding result is reported as “binds”.

B2: mouse 5E3 Fab fragment (Fab, V domains shown)
VH: QVQLQQPGAELVMPGASVKMSCKASGYTFTDYWMHWVKQRPGQGLEWIGAIDTSDSYTSYNQKFKGKATLTVDESSSTAYMQLSSLTSEDSAVYYCARDYGNFYYYAMDYWGQGTSVTVSS
VL: QAVVTQESALTTSPGETVTLTCRSSTGAVTTSNYANWVQEKPDHLFTGLIGGTNNRAPGVPARFSGSLIGDKAALTITGAQTEDEAIYFCALWYSNHWVFGGGTKLTVL
notes: Fab from pEU1.3 Fab vector (human CH1 and part of hinge) with a whole human light chain constant; also called Mouse 5E3 (KD Fab)
As for B2, the Kd in assay [2] and in assay [3] was 9 nM each time.

B3: 5Hg1-5Lg1 Fab fragment (Fab, V domains shown)
VH: QVQLVQSGAEVKKPGASVKVSCKASGYTFTDYWMHWVRQAPGQGLEWMGAIDTSDSYTSYNQKFKGRVTMTRDTSTSTVYMELSSLRSEDTAVYYCARDYGNFYYYAMDYWGQGTLVTVSS
VL: QAVVTQEPSLTVSPGGTVTLTCRSSTGAVTTSNYANWFQQKPGQAPRTLIYGTNNRAPWTPARFSGSLLGGKAALTLSGAQPEDEAEYYCALWYSNHWVFGGGTKLTVL
notes: Fab from pEU1.3 Fab vector (human CH1 and part of hinge) with a whole human light chain constant
On to B3, for which the values for the Kd in assay [2] and in assay [3] were 73 nM and 66 nM, respectively.

B4: 5Hg2-5Lg2 Fab fragment (Fab, V domains shown)
VH: B3 VH with G44R, M70I, T76A, V79A
VL: B3 VL with S78L
notes: as for B3
As for B4, the Kd (as a rule, the constant that tells how readily two partners part at equilibrium) stood at 48 nM in assay [2] and 41 nM in assay [3].
